How the values were obtained:
[1] = tested on: Microglial cell line; experiment: Cell toxicity by MTT method, microglial cell line; format: cell-based; settings: for LD50: microglial line, MTT
Description: (§1) After culture for 24 hours, the toxicity of the protein is evaluated by measuring the number of living cells by the MTT method (3-(4,5-dimethylthiazol-2-yl)-2,5-diphenyl tetrazolium bromide) as described in Berridge et al. Biotechnology Annual Review, 2005, 11, 127-152.
Similar experiments were carried out on microglial lines. Conditions similar to those used for the 1g5 cells were used, with 5.10^5 cells/mL.
(§2) The PBL cells were treated with 0.24 μg/mL, 0.48 μg/mL, 0.96 μg/mL, 2.4 μg/mL, 4.8 μg/mL, 9.6 μg/mL, or 24 μg/mL of HPBP protein. Untreated cells were tested as a control.
The cell toxicity of St. John's wort protein p27^SJ was measured on cells in culture under the conditions described in Example 15. The p27^SJ was tested at doses of 0 μg/mL (control), 0.01 μg/mL, 0.1 μg/mL, 0.5 μg/mL, 1 μg/mL, 5 μg/mL, 10 μg/mL, 20 μg/mL and 40 μg/mL.

[2] = target: C/EBPβ protein (Homo sapiens, UniProt P17676); experiment: ELISA of in vitro interaction of HPBP and C/EBPβ proteins; format: binding; settings: C/EBPβ adsorbed on plate, pure HPBP 0.1 nM to 100 mM
Chain of C/EBPβ protein (P17676 whole entry, species assumed): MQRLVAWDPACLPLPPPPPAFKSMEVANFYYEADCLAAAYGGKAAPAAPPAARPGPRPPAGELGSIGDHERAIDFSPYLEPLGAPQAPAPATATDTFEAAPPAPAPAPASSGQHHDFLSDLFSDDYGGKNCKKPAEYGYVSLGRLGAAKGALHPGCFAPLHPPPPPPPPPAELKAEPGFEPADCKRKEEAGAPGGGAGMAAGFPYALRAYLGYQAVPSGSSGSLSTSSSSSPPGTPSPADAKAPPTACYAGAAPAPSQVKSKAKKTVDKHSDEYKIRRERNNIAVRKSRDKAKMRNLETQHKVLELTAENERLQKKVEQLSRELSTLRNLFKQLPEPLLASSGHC
Description: (§3) The combination of the Human Phosphate Binding Protein (HPBP) with the C/EBPβ protein is carried out using an ELISA technique.
In ELISA flat-bottom 96-well plates having a high binding affinity for proteins, the C/EBPβ protein is adsorbed on the support and incubated overnight at 4° C.
(§4) The proteins not bound to the plate are removed by washing with a Phosphate Buffered Saline (PBS) buffer containing 10 mg/mL of Bovine Serum Albumin (BSA).
The wells are saturated with a Phosphate Buffered Saline (PBS) buffer solution containing 20 mg/mL of Bovine Serum Albumin (BSA) for 1 hour at room temperature in order to remove the background noise.
After washing with a Phosphate Buffered Saline (PBS) solution containing 10 mg/mL of Bovine Serum Albumin (BSA), different solutions of pure HPBP from 0.1 nM to 100 mM are added to the wells for incubation for 1-3 hours at RT.
The plate is once again washed then incubated with mouse monoclonal anti-HPBP antibodies or rabbit polyclonal anti-HPBP antibodies for incubation for 1-3 hours at RT. […]
(§5) Then after a last washing, the plate is incubated with an HRP substrate (3,3′,5,5′-tetramethylbenzidine: TNB in the presence of hydrogen peroxide H2O2). […] The optical density of the product of the reaction is then measured with a spectrophotometer at 450 nm.

[3] = target: T1, GST-Tat protein (Human immunodeficiency virus type 1 group M subtype B, UniProt P04608); experiment: ELISA of in vitro interaction of HPBP and Tat proteins; format: binding, HIV-1; settings: GST-Tat adsorbed on plate, pure HPBP 0.1 nM to 100 mM
T1 construct: made in house
T1 sequence (P04608 whole entry): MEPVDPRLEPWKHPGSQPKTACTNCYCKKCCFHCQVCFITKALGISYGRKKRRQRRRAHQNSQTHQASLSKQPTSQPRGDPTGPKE
Description: as §3
In flat-bottom 96-well ELISA plates having a high protein-binding affinity the GST-Tat protein is adsorbed on the support and incubated overnight at 4° C.
as §4
The wells are saturated with a Phosphate Buffered Saline (PBS) buffer solution containing 20 mg/mL of Bovine Serum Albumin (BSA) for 1 hour at room temperature in order to eliminate the background noise. […]
as §5
The inventors used the Enzyme Linked Immunosorbent Assay (ELISA) technique, suited to studying the interaction between the HPBP protein and the HIV-1 (TAT) protein (Engvall and Perlmann, 1971)). The HIV-1 TAT protein was expressed in the form of a fusion with GST in order to obtain the soluble protein and in quantity (approximately 2 mg/mL). […]

[4] = tested on: HIV-1 (proviral genome NL4.3, strain LAI); experiment: HIV-1 replication, ELISA of viral p24 capsid protein in supernatant of infected Jurkat 1G5 cells; format: cell-based; settings: treatment 24 hours
From the text: (§6) Method: a Jurkat CD4+ T lymphocyte cell line (line 1G5) having integrated into its genome a construction comprising a luciferase reporter gene the expression of which is controlled by the HIV-1 promoter (HIV-1 LTR; HIV-LTR Jurkat line) was used. The measurement of luciferase activity from the cell extracts therefore makes it possible to estimate the HIV-1 transcriptional activity.
(§7) The Jurkat HIV-LTR and Jurkat 1G5 lines were transfected by means of the DEAE-dextran technique with the proviral genome NL4.3 (complete HIV-1 genome, strain LAI).
(§8) The HIV-LTR Jurkat and 1G5 Jurkat lines thus infected, are treated 24 hours later with HPBP/PON protein complexes or with purified PON or HPBP proteins at a final concentration of 2 μg/mL of medium (52 nM of protein alone).
(§9) The cells and the cell supernatant are sampled after treatment for 24 hours.
The transcriptional activity is measured by carrying out a luciferase test. The intensity of the HIV-1 replication is measured by means of ELISA assay of the quantity of viral p24 capsid proteins present in the supernatant of the cell cultures of the infected 1G5 lines [Rohr, O., et al. (2000). The Journal of Biological Chemistry 275, 2654-2660]. […]
(§10) The transcriptional activity and inhibition of the replication are measured as described in Example 6.

[5] = tested on: HIV-1 promoter (HIV-1 LTR); experiment: HIV-1 transcriptional activity, luciferase test in HIV-LTR Jurkat line; format: cell-based; settings: treatment 24 hours
From the text: as §6, §7, §8, §9
The transcriptional activity is measured by carrying out a luciferase test. The intensity of the HIV-1 replication is measured by means of ELISA assay of the quantity of viral p24 capsid proteins present in the supernatant of the cell cultures of the infected 1G5 lines [Rohr, O., et al. (2000). The Journal of Biological Chemistry 275, 2654-2660].
An untreated negative control as well as a positive control treated with AZT at a final concentration of 10 μM were carried out in parallel. Each experiment is carried out in triplicate.
In parallel, the infected lymphocyte lines obtained were treated with 10 μg of potato DING protein.
as §6, with “Measurement” for “The measurement”, “activity. […]” for “activity.”
as §10

[6] = tested on: Cell Line R3HR-1G5 (1g5); experiment: Cell toxicity by MTT method, cell line R3HR-1G5 (1g5); format: cell-based; settings: 1g5 cells, culture 24 hours, FIG. 10
Description: The cell toxicity of the HPBP protein was measured on cells in culture.
5.10^6 cells/mL of the lymphoid line B 1g5 were seeded on plates and treated, or not treated, with different doses of purified HPBP protein: 0.2 μg/mL, 2 μg/mL, 20 μg/mL, or 90 μg/mL.
The cells are cultured for 24 hours at 37° C.
as §1
Briefly, 10 μL of MTT is added to each culture.
The mixture is added quickly over 1 minute, then the cultures are returned to 37° C. for 4 hours.
The culture supernatant is then aspirated, and the crystals formed by the presence of MTT are dissolved with acetic acid.
The optical density (OD) of each of the cultures is measured at 570 nm using a spectrophotometer.

[7] = tested on: Peripheral Blood Lymphocyte (PBL) cells; experiment: Cell toxicity by MTT method, peripheral blood lymphocytes; format: cell-based; settings: FIG. 11
Description: as §1
Similar experiments were carried out on primary lymphocytes. Conditions similar to those used for the 1g5 cells were used.
as §2

B1: p27^SJ: St. John's wort protein, SEQ ID NO: 4, 71% sequence homology with SEQ ID NO: 1, excluded from the invention (protein, listed as Hypericum perforatum)
chain: MADINGGGATLPQALYQTSGVLTAGFAPYIGVGSGNGKAAFLNNDYTKFQAGVTNKNVHWAGSDSKLSATELSTYASAKQPTWGKLIQVPSVGTAVAIPFNKSGTAAVDLSVSELCGVFSGRITDWSGISGSGRTGAITVVYRSESSGTTELFTRFLNAKCAETGTFNISTTFGTSYTGGLPAGAVSAAGSQGVMTALAGADGGTTYMSPDFAAPTLAGLDDATKVARVGKDVATNTAGVSPAAANVSAAINAVPVPASTEKP
cell toxicity (in words) ([1]; conditions of Example 15, FIG. 12): toxicity very clearly less than that of the HPBP protein | cells dead ([1]; dose of 40 μg/mL, FIG. 12): approximately 4% | LD50 ([1]; FIG. 12): greater than 2.5 μg/mL

B2: HPBP: human phosphate binding protein, plasma DING protein of 38 kDa, SEQ ID NO: 2, purified from human plasma (protein, listed as Homo sapiens)
chain: DINGGGATLPQKLYLTPDVLTAGFAPYIGVGSGKGKIAFLENKYNQFGTDTTKNVHWAGSDSKLTATELATYAADKEPGWGKLIQVPSVATSVAIPFRKAGANAVDLSVKELCGVFSGRIADWSGITGAGRSGPIQVVYRAESSGTTELFTRFLNAKCTTQPGTFAVTTVFANSYSLGLSPLAGAVAAIGSVGVMAADNDVTTAQGRITYISPDFAAPTLAGLDDATKVARTGKGSSSGGGAEGKSPAAANVSAAISVVPLPAAADRGDPNVWTPVFGAVTGGGVVAYPDSGYPILGFTDLIFSECYANATQTGQVRNFFTKHYGTSANDNAAIQANAFVPLPSNWKAAVRASYLTASNALSIGDSAVCGGKGRPE
interaction of HPBP protein and C/EBPβ protein in vitro [2]: capable of interacting in vitro | interaction of HPBP protein and Tat protein in vitro [3]: capable of interacting in vitro | inhibition of HIV-1 replication ([4]; 2 μg/mL (52 nM), p24 in supernatant, CD4+ T lymphocytes (Jurkat 1G5)): 89% | transcriptional activity repressed ([5]; 2 μg/mL (52 nM), luciferase, FIG. 3): 80% | inhibits the viral replication by a factor (FIG. 5) ([5]; HPBP 2 μg/mL, FIG. 5 (luciferase activity)): > 6 | lethal dose 50% (LD50, dose killing half of the cells) [6]: approximately 20 μg/mL | LD50 [7]: approximately 5 μg/mL | LD50 ([1]; FIG. 12): approximately 2.5 μg/mL

B3: PON-1: human paraoxonase (PON1), co-purified with HPBP from plasma and separated on hydroxyapatite (protein)
chain: AKLIALTLLGMGLALFRNHQSSYQTRLNALREVQPVELPNCNLVKGIETGSEDLEILPNGLAFISSGLKYPGIKSFNPNSPGKILLMDLNEEDPTVLELGITGSKFDVSSFNPHGISTFTDEDNAMYLLVVNHPDAKSTVELFKFQEEEKSLLHLKTIRHKLLPNLNDIVAVGPEHFYGTNDHYFLDPYLQSWEMYLGLAWSYVVYYSPSEVRVVAEGFDFANGINISPDGKYVYIAELLAHKIHVYEKHANWTLTPLKSLDFNTLVDNISVDPETGDLWVGCHPNGMKIFFYDSENPPASEVLRIQNILTEEPKVTQVYAENGTVLQGSTVASVYKGKLLIGTVFHKALYCEL
repressive effect on HIV-1 replication (in words) ([4]; 2 μg/mL, p24, FIG. 4): no repressive effect | inhibiting effect on transcriptional activity (in words) ([5]; 2 μg/mL, luciferase, FIG. 3): does not have such an inhibiting effect
